In this test the target is recombinant soluble PRRSV-1 Olot/91 glycoprotein 3 ectodomain (sGP3) (PRRSV-1 (Betaarterivirus europensis), strain Olot/91). Nature of the test: mass photometry; Refeyn MPOne; GP3 at 20 nM in filtered PBS, triplicate; calibrated with BSA, beta-amylase and thyroglobulin.

“recombinant soluble PRRSV-1 Olot/91 glycoprotein 3 ectodomain (sGP3) (domain or fragment)”: the stoichiometry N was 2.

As a reminder, the stoichiometry N is a count of units in the complex or per binding partner.

The values are drawn from publication PMC13541077.
